Patent US20030181404

B1: CHK (murine Ctk) immunoprecipitated from mouse brain (protein)
chain: MARRSSRVSWLAFEGWESRDLPRVSPRLFGAWHPAPAAARMPTRWAPGTQCMTKCENSRPKPGELAFRKGDMVTILEACEDKSWYRAKHHGSGQEGLLAAAALRHGEALSTDPKLSLMPWFHGKISGQEAIQQLQPPEDGLFLVRESARHPGDYVLCVSFGRDVIHYRVLHRDGHLTIDEAVCFCNLMDMVEHYTKDKGAICTKLVKPRRKQGAKSAEEELAKAGWLLDLQHLTLGAQIGEGEFGAVLQGEYLGQKVAVKNIKCDVTAQAFLDETAVMTKLQHRNLVRLLGVILHHGLYIVMEHVSKGNLVNFLRTRGRALVSTSQLLQFALHVAEGMEYLESKKLVHRDLAARNILVSEDLVAKVSDFGLAKAERKGLDSSRLPVKWTAPEALKNGRFSSKSDVWSFGVLLWEVFSYGRAPYPKMSLKEVSEAVEKGYRMEPPDGCPGSVHTLMGSCWEAEPARRPPFRKIVEKLGRELRSVGVSAPAGGQEAEGSAPTRSQDP
B2: Csk (murine) immunoprecipitated from mouse brain (protein)
chain: SAIQAAWPSGTECIAKYNFHGTAEQDLPFCKGDVLTIVAVTKDPNWYKAKNKVGREGIIPANYVQKREGVKAGTKLSLMPWFHGKITREQAERLLYPPETGLFLVRESTNYPGDYTLCVSCEGKVEHYRIMYHASKLSIDEEVYFENLMQLVEHYTTDADGLCTRLIKPKVMEGTVAAQDEFYRSGWALNMKELKLLQTIGKGEFGDVMLGDYRGNKVAVKCIKNDATAQAFLAEASVMTQLRHSNLVQLLGVIVEEKGGLYIVTEYMAKGSLVDYLRSRGRSVLGGDCLLKFSLDVCEAMEYLEGNNFVHRDLAARNVLVSEDNVAKVSDFGLTKEASSTQDTGKLPVKWTAPEALREKKFSTKSDVWSFGILLWEIYSFGRVPYPRIPLKDVVPRVEKGYKMDAPDGCPPAVYEVMKNCWHLDAATRPTFLQLREQLEHIKTHELHL

Protein	in vitro kinase assay of immunoprecipitates (32P incorporation into substrate) (C-terminal src peptide)	in vitro kinase assay of immunoprecipitates (32P incorporation into substrate) (enolase)
B1	both kinases phosphoylated the C-terminal scr peptide, enolase and poly Glu/Try to similar degrees	both kinases phosphoylated the C-terminal scr peptide, enolase and poly Glu/Try to similar degrees
B2	both kinases phosphoylated the C-terminal scr peptide, enolase and poly Glu/Try to similar degrees	both kinases phosphoylated the C-terminal scr peptide, enolase and poly Glu/Try to similar degrees
